# In IntAct's records for PubMed 31631010:
# B1: Palmitoyltransferase ZDHHC5 (Mus musculus), Q8VDZ4 (parent)
# chain: MPAESGKRFKPSKYVPVSAAAIFLVGATTLFFAFTCPGLSLNVSPAVPIYNAIMFLFVLANFSMATFMDPGIFPRAEEDEDKEDDFRAPLYKTVEIKGIQVRMKWCATCRFYRPPRCSHCSVCDNCVEEFDHHCPWVNNCIGRRNYRYFFLFLLSLTAHIMGVFGFGLLYVLYHIEELSGVRTAVTMAVMCVAGLFFIPVAGLTGFHVVLVARGRTTNEQVTGKFRGGVNPFTNGCCNNVSRVLCSSPAPRYLGRPKKEKTIVIRPPFLRPEVSDGQITVKIMDNGIQGELRRTKSKGSLEITESQSADAEPPPPPKPDLSRYTGLRTHLSLATNEDSSLLGKDSPPTPTMYKYRPGYSSSSTSAAMPHSSSAKLSRGDSLKEPTSIADSSRHPSYRSEPSLEPESFRSPTFGKSFHFDPLSSGSRSSSLKSAQGTGFELGQLQSIRSEGTTSTSYKSLANQTRNGSLSYDSLLTPSDSPDFESVQAGPEPDPPLGYTSPFLSARLAQQREAERHPRLLPTGPPHREPSPVRYDNLSRHIVASLQEREKLLRQSPPLAGREEEPGLGDSGIQSTPGSGHAPRTSSSSDDSKRSPLSKTPLGRPAVPRFGKPDGLRSRGLGSPEPGTTAPYLGRSISYSSQKAPSGVSETEEVALQPLLTPKDEVQLKTTYSKSNGQPKSIGSASPGPGQPPLSSPTRGGVKKVSGVGGTTYEISV
# Variants of: B1
# Conditions: with goga7_human GOLGA7, Q7Z5G4
row,Variant,effect of a mutation on the interaction
1,C134S,with no effect
2,C236S;C237S;C245S,disrupting interaction strength
